For this data set, the target named is T1, MGF (mammary gland factor, STAT5), native from lactating mammary gland (Ovis aries, UniProt P42231 SEQ:1-794).
T1 chain: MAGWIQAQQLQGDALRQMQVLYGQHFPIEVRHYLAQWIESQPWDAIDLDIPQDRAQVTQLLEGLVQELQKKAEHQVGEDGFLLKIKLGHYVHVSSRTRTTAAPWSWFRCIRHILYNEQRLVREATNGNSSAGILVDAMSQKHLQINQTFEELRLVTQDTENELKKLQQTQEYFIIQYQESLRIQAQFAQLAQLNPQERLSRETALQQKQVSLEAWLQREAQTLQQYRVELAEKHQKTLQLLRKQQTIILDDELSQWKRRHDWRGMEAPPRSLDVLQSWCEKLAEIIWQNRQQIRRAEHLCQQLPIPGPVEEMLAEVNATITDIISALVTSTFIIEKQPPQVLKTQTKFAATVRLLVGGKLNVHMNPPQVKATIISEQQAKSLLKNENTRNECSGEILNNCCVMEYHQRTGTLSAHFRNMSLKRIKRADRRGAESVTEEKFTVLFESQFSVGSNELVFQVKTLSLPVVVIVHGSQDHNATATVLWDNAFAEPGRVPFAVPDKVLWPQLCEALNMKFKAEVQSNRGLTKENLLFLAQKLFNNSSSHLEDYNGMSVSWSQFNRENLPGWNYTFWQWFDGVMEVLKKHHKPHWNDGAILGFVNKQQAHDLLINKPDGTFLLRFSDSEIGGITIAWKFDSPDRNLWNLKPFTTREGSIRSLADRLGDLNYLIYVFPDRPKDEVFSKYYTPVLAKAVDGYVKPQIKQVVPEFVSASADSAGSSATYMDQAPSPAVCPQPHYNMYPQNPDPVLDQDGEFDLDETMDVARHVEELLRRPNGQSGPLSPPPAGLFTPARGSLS
The data set is described as follows: EMSA; binds more efficiently than rat site; also used for DNA affinity column, eluted at 600 mM NaCl; binding abolished by tyrosine phosphatase PTP1B, not by PP1C or. Conditions: tags: none; 84 and 92 kDa bands, tyrosine phosphorylated.

Experimental findings from US5534409, “Cytokine regulated transcription factor” (Ciba-Geigy Corporation) are described below.

B1: bovine beta-casein MGF site (dsDNA)
DNA 1: AGATTTCTAGGAATTCAATCC
DNA 2: GGATTGAATTCCTAGAAATCT
Turning to B1, the binding result was “binds”.
